# Results from patent publication US20050158362A1, “Polymeric, fiber matrix delivery systems for bioactive compounds” (priority 2000, published 2005).
# Assay: In vitro release of FITC-BSA from the fiber matrix into an infinite sink of 37° C. phosphate buffered saline
# Assay type: physicochemical
# Conditions: polylactic glycolic acid fiber matrix
# Text: To construct the bioactive compound-loaded matrices, various concentrations of finely ground FITC-BSA were suspended in biodegradable polymer polylactic glycolic acid in 50:50 dimethyl formamide:tetrahydrofuran. Suspensions contained in a glass syringe with a capillary tip were electrospun into approximately 500 nm diameter fibers via an electrostatic based self-assembly process in which a high voltage electric field was generated between the oppositely charged polymer and a metallic collection screen. At a critical voltage the charge overcomes the surface tension of the deformed polymer drop at the needle tip, producing an ultrafine jet. The similarly charged fibers are splayed and during their passage to the screen, the solvent quickly evaporates so that dry fibers accumulate randomly on the screen forming a mesh matrix.
# In vitro release of the FITC-BSA into an infinite sink of 37° C. phosphate buffered saline was also measured. This sink mimics in vivo conditions.
# A 25% (w/v) solution of polylactic glycolic acid was prepared in a 50:50 mixture of dimethylformamide and tetrahydrofuran. […]
# In vitro release of the FITC-BSA into an infinite sink of 37° C. phosphate buffered saline was measured. […] The amount of protein released was measured in the form of fluorescence of the FITC-BSA on a spectrophotofluorometer at an excitation wavelength of 495 nm and an emission wavelength of 513 nm.
substance,measurement,setting,value
FITC-BSA: fluorescently labeled bovine serum albumin dispersed between electrospun polylactic glycolic acid fibers of the matrix,in vitro release profile of FITC-BSA,,release in the first 24 hours after initiation was dominant
same,duration of observed in vitro release of FITC-BSA,fluorescence readout,over 120 hours
